“And” between values parts separate entries of the source, which are not always exact repeats. Identical values can stand only once.
Tests used:
[1] = target: T1, full-length human Tau (Tau441; 2N4R), recombinant (human, UniProt P10636 1-758); test: Fab ELISA
T1 construct: made in E. coli, His6-Smt3 tag removed; biotinylated through amines for Octet and phage work; also called r-Tau; recombinant Tau
Description: (§1) Half-area ELISA plates (Costar™) were coated overnight at 4° C. with 25 μL per well of 0.5 μg/mL r-Tau or p-Tau. The plates were washed three times with PBST using a BioTek® plate washer. The plates were then blocked for one hour at room temperature with 100 μL per well of PBSA. After washing three times with PBST, the periplasmically-expressed Fabs were added ([…]) and the plates were incubated for one hour. The plates were subsequently washed three times with PBST, and 25 μL per well of PBSA containing a 1:5,000 dilution of HRP-conjugated rabbit anti-human kappa (obtained from Bethyl Laboratories) was added. The plates were incubated at room temperature for 30 minutes, then washed three times with PBST. The plates were developed by adding 25 μL per well of TMB substrate (obtained from Thermo Fisher) and quenched with 2N H₂SO₄. The signal was quantified on a BioTek® plate reader at A₄₅₀. Wells with signal greater than 5-fold over background for both r-Tau and p-Tau were considered positive and the clones were re-arrayed from the primary culture for confirmation of binding (by repeat of ELISA) and sequencing of the variable regions.
(§2) ELISAs were performed essentially as described above, but coating was performed using 1 μg/mL of each recombinant Tau species and using a 1:1 dilution (in PBS with 0.1% BSA, 0.05% Tween®) of Fab containing supernatant. The results of the ELISAs, showing Fab binding to cyno Tau and mouse Tau, as well as binding to phosphorylated full-length human Tau and the human Tau isoforms, are shown in Table 1 below.

[2] = target: T2, hyperphosphorylated recombinant human Tau441 (p-Tau) (human, UniProt P10636 1-758, phosphorylated in vitro with PKA and GSK3beta; sites not listed); test: Fab ELISA
T2 construct: also called p-Tau (2N4R); phosphorylated r-Tau
T2 sequence (P10636 other isoform, or with tags, fused parts or gaps limits assumed): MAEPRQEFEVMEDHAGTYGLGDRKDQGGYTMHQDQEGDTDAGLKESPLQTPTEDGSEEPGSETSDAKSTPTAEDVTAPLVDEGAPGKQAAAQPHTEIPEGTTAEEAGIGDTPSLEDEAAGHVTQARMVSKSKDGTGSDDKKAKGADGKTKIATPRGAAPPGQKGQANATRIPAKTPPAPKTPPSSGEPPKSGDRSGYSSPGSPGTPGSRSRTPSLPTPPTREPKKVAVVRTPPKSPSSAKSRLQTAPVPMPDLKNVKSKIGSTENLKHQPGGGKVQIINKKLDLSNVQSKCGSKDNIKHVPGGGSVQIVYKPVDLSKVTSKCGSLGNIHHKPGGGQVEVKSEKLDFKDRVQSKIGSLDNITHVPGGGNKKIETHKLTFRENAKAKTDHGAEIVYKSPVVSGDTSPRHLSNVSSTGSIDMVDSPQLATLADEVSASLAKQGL
Description: as §1, §2

[3] = target: human Tau splice isoform 1N3R (Tau381) (human, UniProt P10636 1-758); test: Fab ELISA
Chain of human Tau splice isoform 1N3R (Tau381) (P10636 other isoform, or with tags, fused parts or gaps limits assumed): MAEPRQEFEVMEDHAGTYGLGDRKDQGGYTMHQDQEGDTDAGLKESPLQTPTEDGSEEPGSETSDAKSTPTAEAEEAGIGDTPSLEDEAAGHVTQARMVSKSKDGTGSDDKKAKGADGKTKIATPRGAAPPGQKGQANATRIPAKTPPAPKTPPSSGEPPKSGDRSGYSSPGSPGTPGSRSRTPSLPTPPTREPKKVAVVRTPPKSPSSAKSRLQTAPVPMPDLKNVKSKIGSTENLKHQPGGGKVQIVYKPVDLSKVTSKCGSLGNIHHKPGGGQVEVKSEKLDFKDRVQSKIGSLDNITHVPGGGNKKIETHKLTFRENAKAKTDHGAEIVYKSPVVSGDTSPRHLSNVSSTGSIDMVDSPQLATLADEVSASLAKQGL
Description: as §1, §2

[4] = target: T3, N-terminal truncated human Tau (Tau(50-441)) (human, UniProt P10636 50-758); test: Fab ELISA
T3 construct: also called 50-441 (2N4R)
T3 sequence (P10636 other isoform, or with tags, fused parts or gaps limits assumed): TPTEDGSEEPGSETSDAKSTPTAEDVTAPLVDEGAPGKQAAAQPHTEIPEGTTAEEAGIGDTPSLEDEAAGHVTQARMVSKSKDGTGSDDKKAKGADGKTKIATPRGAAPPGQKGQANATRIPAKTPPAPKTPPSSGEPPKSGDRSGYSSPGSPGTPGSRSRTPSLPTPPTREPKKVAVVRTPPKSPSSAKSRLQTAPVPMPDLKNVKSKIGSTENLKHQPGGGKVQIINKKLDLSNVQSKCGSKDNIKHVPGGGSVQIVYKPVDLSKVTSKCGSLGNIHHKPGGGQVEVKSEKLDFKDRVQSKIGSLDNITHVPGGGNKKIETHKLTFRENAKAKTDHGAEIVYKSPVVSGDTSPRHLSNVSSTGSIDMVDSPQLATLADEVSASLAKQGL
Description: as §1, §2

[5] = target: T4, cynomolgus monkey Tau (cynomolgus monkey, UniProt P57786 2-459 (rhesus entry)); test: Fab ELISA
T4 construct: also called cyno Tau; cyno-Tau
T4 sequence (P57786 other isoform, or with tags, fused parts or gaps limits assumed): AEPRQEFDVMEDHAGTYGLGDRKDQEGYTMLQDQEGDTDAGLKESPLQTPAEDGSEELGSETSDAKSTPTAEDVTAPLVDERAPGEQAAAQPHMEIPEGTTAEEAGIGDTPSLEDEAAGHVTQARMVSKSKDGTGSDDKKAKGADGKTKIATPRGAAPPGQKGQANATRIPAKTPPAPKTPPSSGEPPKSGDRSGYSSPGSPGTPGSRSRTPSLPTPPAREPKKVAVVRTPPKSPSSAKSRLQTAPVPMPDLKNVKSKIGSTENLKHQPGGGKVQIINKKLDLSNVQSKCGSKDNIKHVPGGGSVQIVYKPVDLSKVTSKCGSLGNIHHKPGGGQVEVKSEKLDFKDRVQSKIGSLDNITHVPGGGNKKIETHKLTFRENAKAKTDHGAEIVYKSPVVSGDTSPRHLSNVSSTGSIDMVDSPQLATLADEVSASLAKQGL
Description: as §1, §2

[6] = target: human Tau splice isoform 0N4R (Tau383) (human, UniProt P10636 1-758); test: Fab ELISA
Chain of human Tau splice isoform 0N4R (Tau383) (P10636 other isoform, or with tags, fused parts or gaps limits assumed): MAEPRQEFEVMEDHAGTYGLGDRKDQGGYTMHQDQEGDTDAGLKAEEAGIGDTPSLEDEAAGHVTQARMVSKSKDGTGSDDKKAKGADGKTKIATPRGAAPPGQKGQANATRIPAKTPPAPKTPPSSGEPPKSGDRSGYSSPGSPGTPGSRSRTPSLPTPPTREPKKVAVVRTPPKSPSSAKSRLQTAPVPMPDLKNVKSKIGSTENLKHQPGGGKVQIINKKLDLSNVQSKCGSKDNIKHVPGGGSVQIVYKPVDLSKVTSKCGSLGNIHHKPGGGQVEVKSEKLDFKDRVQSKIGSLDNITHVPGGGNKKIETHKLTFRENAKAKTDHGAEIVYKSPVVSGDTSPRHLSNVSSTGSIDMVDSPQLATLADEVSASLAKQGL
Description: as §1, §2

[7] = target: human Tau splice isoform 0N3R (Tau352) (human, UniProt P10636 1-758); test: Fab ELISA
Chain of human Tau splice isoform 0N3R (Tau352) (P10636 other isoform, or with tags, fused parts or gaps limits assumed): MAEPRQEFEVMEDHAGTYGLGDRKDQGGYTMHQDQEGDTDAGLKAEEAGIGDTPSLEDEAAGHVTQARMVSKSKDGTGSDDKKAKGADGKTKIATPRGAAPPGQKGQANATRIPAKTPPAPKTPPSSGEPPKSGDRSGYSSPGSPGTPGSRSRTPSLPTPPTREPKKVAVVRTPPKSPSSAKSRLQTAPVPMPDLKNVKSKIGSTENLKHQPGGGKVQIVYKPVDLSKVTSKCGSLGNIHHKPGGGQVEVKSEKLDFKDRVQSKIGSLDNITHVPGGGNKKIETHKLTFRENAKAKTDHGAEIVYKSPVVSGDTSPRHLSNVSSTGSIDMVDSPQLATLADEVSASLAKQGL
Description: as §1, §2

[8] = target: mouse Tau (mouse, UniProt P10637 2-733); test: Fab ELISA
Chain of mouse Tau (P10637 other isoform, or with tags, fused parts or gaps limits assumed): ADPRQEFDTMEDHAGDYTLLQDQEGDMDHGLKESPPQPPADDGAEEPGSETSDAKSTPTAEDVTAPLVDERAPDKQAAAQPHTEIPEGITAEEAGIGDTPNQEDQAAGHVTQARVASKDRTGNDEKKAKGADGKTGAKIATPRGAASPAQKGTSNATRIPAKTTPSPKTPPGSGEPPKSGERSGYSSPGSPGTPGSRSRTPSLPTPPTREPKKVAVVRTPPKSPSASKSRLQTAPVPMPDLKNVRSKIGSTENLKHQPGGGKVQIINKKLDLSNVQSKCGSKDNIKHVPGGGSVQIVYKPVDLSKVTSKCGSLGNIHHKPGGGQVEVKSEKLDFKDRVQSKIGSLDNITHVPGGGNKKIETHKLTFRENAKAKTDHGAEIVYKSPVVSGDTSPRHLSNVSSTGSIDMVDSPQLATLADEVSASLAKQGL
Description: as §1, §2

[9] = target: human Tau splice isoform 2N3R (Tau410) (human, UniProt P10636 1-758); test: Fab ELISA
Chain of human Tau splice isoform 2N3R (Tau410) (P10636 other isoform, or with tags, fused parts or gaps limits assumed): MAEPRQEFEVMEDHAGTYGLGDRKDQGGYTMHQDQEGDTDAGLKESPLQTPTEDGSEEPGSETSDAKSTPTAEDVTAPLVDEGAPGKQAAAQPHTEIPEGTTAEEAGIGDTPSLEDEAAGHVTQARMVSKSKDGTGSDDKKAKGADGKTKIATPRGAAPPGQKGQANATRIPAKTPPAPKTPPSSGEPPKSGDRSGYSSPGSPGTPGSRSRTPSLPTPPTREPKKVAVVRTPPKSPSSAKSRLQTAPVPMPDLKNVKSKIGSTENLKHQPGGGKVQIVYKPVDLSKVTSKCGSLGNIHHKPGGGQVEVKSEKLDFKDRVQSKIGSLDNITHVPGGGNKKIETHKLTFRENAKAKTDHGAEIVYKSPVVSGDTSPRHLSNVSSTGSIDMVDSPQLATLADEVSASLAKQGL
Description: as §1, §2

[10] = target: T5, C-terminal truncated human Tau (Tau(1-421)) (human, UniProt P10636 1-738); test: Fab ELISA
T5 construct: also called 1-421 (2N4R)
T5 sequence (P10636 other isoform, or with tags, fused parts or gaps limits assumed): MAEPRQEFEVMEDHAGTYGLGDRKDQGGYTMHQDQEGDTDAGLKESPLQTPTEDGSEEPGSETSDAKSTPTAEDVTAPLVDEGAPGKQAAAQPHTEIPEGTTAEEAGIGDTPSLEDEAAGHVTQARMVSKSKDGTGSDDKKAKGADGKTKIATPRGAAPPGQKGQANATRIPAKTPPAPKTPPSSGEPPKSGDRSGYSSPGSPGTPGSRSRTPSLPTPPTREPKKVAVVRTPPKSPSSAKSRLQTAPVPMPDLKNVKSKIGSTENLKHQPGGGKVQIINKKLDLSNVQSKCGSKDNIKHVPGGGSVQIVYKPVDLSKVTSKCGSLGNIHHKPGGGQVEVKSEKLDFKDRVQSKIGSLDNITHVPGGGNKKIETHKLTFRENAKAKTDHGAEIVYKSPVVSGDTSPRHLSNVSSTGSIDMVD
Description: as §1, §2

[11] = target: human Tau splice isoform 1N4R (Tau412) (human, UniProt P10636 1-758); test: Fab ELISA
Chain of human Tau splice isoform 1N4R (Tau412) (P10636 other isoform, or with tags, fused parts or gaps limits assumed): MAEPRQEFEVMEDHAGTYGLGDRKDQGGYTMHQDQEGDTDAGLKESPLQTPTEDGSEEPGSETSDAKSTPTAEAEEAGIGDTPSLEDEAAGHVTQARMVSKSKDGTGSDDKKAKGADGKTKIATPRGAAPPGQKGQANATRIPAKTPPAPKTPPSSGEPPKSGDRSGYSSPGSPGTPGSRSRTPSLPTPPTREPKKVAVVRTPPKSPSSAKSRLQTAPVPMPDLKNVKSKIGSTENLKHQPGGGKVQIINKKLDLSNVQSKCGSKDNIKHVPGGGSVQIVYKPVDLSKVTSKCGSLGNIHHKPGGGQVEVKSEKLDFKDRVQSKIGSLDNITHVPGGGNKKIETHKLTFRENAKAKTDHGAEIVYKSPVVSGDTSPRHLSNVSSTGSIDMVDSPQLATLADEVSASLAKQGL
Description: as §1, §2

[12] = target: T1, full-length human Tau (Tau441; 2N4R), …; test: Octet binning on biotin-r-Tau; row antibody Ab107 (anti-BACE1 control)
Description: (§3) Epitope binning assays were performed using a FortéBio® Octet® RED384 instrument using FortéBio® Streptavidin biosensors. Biotinylated recombinant Tau was diluted to a concentration of 2 μg/mL in kinetic buffer (obtained from FortéBio®) and captured onto individual biosensors for 1 minute. A baseline was then established for 1 minute in kinetic buffer. The loaded biosensors were dipped into 10 μg/mL of the first chimeric IgG antibody until signal saturation, followed by dipping into 1 μg/mL of a second antibody. The binding for the second antibody was normalized to its total binding in the absence of the first antibody.

[13] = target: T1, full-length human Tau (Tau441; 2N4R), …; test: SPR Biacore, IgG captured, r-Tau injected
Description: The affinity of chimeric IgG antibodies 1C7, 1A1, 1A5, 1D10, and 1G7 for recombinant Tau was determined by surface plasmon resonance using a Biacore™ T200 instrument. Biacore™ Series S CM5 sensor chips were immobilized with monoclonal mouse anti-human IgG (Fc) antibody (human antibody capture kit from GE Healthcare). 1 μg/mL of antibody was captured for 1 minute on each flow cell and serial 3-fold dilutions of recombinant Tau were injected at a flow rate of […]. Each sample was analyzed with a 3-minute association and a 10-minute dissociation. After each injection the chip was regenerated using 3M MgCl₂. Binding response was corrected by subtracting the RU from a flow cell capturing an irrelevant IgG at similar density. A 1:1 Languir model of simultaneous fitting of kₒₙ and koff was used for kinetics analysis.

[14] = target: T1, full-length human Tau (Tau441; 2N4R), …; test: Octet binning on biotin-r-Tau; competitor 1D10
Description: as §3

[15] = target: T1, full-length human Tau (Tau441; 2N4R), …; test: Octet binning on biotin-r-Tau; competitor 1G7
Description: as §3

[16] = target: T1, full-length human Tau (Tau441; 2N4R), …; test: Octet binning on biotin-r-Tau; competitor 1C7
Description: as §3

[17] = target: T1, full-length human Tau (Tau441; 2N4R), …; test: SPR Biacore
[18] = target: T1, full-length human Tau (Tau441; 2N4R), …; test: Octet binning on biotin-r-Tau; competitor 1A5
Description: as §3

| Binder | A450 avg. [1] | A450 avg. [2] | A450 avg. [3] | A450 avg. [4] | A450 avg. [5] | A450 avg. [6] | A450 avg. [7] | A450 avg. [8] | A450 avg. [9] | A450 avg. [10] | A450 avg. [11] | A450 [8] | normalized binding of second antibody [12] | Kd [13] | normalized binding of second antibody [14] | normalized binding of second antibody [15] | normalized binding of second antibody [16] | Kd [17] | normalized binding of second antibody [18] |
| --- | --- | --- | --- | --- | --- | --- | --- | --- | --- | --- | --- | --- | --- | --- | --- | --- | --- | --- | --- |
| Clone 1A1 Fab (Fab, V domains shown, crude periplasmic Fab; mouse V regions joined to human CH1 and human kappa constant) VH: EVQLQQSGAELVRPGASVRLSCTASGFNIKDSLMHWLKQRPEQGLEWIGWIDPEDGETKYAPKFQDKATITADTSSNTAYLQLSSLTSEDTAIYYCTRRDWEGPWGQGTLVTVSA VL: not shown | 2.5 | 2.09 | 2.59 | 1.8 | 1.81 | 2.37 | 1.54 | 1.95 | 2.52 | 1.52 | 2.39 |  |  |  |  |  |  |  |  |
| Clone 1G7 Fab (Fab, V domains shown, crude periplasmic Fab; mouse V regions joined to human CH1 and human kappa constant) VH: EVQLQQSGAEVVRPGASVKLSCTTSGFNIKDSLMHWLKQRPEQGLEWIGWIDPEDGETKYAPKFQDKATITADTSSNTAYLQLSSLTSGDTAIYYCARRDWEGPWGQGTLVTVSA VL: not shown | 2.04 | 1.61 | 2.16 | 1.68 | 1.53 | 1.88 | 0.725 | 1.51 | 2 | 1.23 | 1.8 |  |  |  |  |  |  |  |  |
| Clone 1D10 Fab (Fab, V domains shown, crude periplasmic Fab; mouse V regions joined to human CH1 and human kappa constant) VH: EVQLQQSGAELVRPGASVKLSCTASGFNIKDSLMHWMKQRPEQGLEWIGWIDPEDGETKYAPKFQDKATLTADTSSNAAYLQLSSLTSEDTAIYYCVRGDWDGGYWGQGTTLTVSS VL: not shown | 1.47 | 1.19 | 1.49 | 1.13 | 0.867 | 1.19 | 0.323 | 1.1 | 1.46 | 0.806 | 0.939 |  |  |  |  |  |  |  |  |
| Clone 1A5 Fab (Fab, V domains shown, crude periplasmic Fab; mouse V regions joined to human CH1 and human kappa constant) VH: EVQLQQSGAELVRPGASVKLSCTASGFNIKDSLIHWVKQRPEQGLEWIGWIDPEDGETKYAPKFQDKATKTADTSSNTAYLQLSSLTSEDTAIYYCASGEWDYWGQGTSVTVSS VL: not shown | 2.57 | 2.08 | 2.58 | 2.08 | 1.9 | 2.48 | 1.19 | 2.07 | 2.54 | 1.64 | 2.33 |  |  |  |  |  |  |  |  |

Other lines, results leading:

| A450 avg. [1] | A450 avg. [2] | A450 avg. [3] | A450 avg. [4] | A450 avg. [5] | A450 avg. [6] | A450 avg. [7] | A450 avg. [8] | A450 avg. [9] | A450 avg. [10] | A450 avg. [11] | A450 [8] | normalized binding of second antibody [12] | Kd [13] | normalized binding of second antibody [14] | normalized binding of second antibody [15] | normalized binding of second antibody [16] | Kd [17] | normalized binding of second antibody [18] | Binder |
| --- | --- | --- | --- | --- | --- | --- | --- | --- | --- | --- | --- | --- | --- | --- | --- | --- | --- | --- | --- |
| 2.73 | 2.24 | 2.7 | 2.3 | 2.31 | 2.66 | 2.4 | 0.06 | 2.75 | 2.12 | 2.69 | 0.06 |  |  |  |  |  |  |  | Clone 1C7 Fab (Fab, V domains shown, crude periplasmic Fab; mouse V regions joined to human CH1 and human kappa constant) VH: EVKLVESGGGLVKPGGSLKLSCAASGFTFSSYGMSWVRQTPEKRLEWVASISGDGGSYIHYADSVKGRFTISRDSAKNTLYLQMSSLRSEDTALYYCARLPYWGQGTLVTVSA VL: DIVMTQSPSSLTVTAGEKVTMSCKSSQSLLNSGNQKNYLTWYQQKPGQPPKLLIYWASTRESGVPDRFTGSGSGTDFTLTISNVQSEDLAEYFCQQYNSYPLTFGAGTKLELKR |
|  |  |  |  |  |  |  |  |  |  |  |  | 1 | 0.2 nM | 0.82 | 0.84 | 0.03 | 0.8 nM and 0.44 nM | 0.88 | chimeric IgG clone 1C7 (antibody, V domains shown, mouse-human chimeric IgG from HEK293; also called 1C7.IgG; anti-Tau^1C7) VH: EVKLVESGGGLVKPGGSLKLSCAASGFTFSSYGMSWVRQTPEKRLEWVASISGDGGSYIHYADSVKGRFTISRDSAKNTLYLQMSSLRSEDTALYYCARLPYWGQGTLVTVSA VL: DIVMTQSPSSLTVTAGEKVTMSCKSSQSLLNSGNQKNYLTWYQQKPGQPPKLLIYWASTRESGVPDRFTGSGSGTDFTLTISNVQSEDLAEYFCQQYNSYPLTFGAGTKLELKR |
